Measured values taken from PMC6904361, “Vitamin D Receptor Inhibits NLRP3 Activation by Impeding Its BRCC3-Mediated Deubiquitination” (Frontiers in Immunology, 2019).

Molecular target: T1, His-NLRP3 (human, UniProt Q96P20 1-1036)
T1 construct: human NLRP3 cloned into pET28a; The methods name only His-NLRP3; also called His-NLRP3-Flag; pET28a-His-NLRP3; source: E. coli (pET28a), IPTG-induced; called purified in the legend
Experiment: pull-down; GST or GST-VDR with His-NLRP3, pulled down on Glutathione MagBeads, immunoblot; incubation 2 h or overnight at 4 °C on a rotator (methods)
Details: both partners purified

T1 sequence (Q96P20 whole entry): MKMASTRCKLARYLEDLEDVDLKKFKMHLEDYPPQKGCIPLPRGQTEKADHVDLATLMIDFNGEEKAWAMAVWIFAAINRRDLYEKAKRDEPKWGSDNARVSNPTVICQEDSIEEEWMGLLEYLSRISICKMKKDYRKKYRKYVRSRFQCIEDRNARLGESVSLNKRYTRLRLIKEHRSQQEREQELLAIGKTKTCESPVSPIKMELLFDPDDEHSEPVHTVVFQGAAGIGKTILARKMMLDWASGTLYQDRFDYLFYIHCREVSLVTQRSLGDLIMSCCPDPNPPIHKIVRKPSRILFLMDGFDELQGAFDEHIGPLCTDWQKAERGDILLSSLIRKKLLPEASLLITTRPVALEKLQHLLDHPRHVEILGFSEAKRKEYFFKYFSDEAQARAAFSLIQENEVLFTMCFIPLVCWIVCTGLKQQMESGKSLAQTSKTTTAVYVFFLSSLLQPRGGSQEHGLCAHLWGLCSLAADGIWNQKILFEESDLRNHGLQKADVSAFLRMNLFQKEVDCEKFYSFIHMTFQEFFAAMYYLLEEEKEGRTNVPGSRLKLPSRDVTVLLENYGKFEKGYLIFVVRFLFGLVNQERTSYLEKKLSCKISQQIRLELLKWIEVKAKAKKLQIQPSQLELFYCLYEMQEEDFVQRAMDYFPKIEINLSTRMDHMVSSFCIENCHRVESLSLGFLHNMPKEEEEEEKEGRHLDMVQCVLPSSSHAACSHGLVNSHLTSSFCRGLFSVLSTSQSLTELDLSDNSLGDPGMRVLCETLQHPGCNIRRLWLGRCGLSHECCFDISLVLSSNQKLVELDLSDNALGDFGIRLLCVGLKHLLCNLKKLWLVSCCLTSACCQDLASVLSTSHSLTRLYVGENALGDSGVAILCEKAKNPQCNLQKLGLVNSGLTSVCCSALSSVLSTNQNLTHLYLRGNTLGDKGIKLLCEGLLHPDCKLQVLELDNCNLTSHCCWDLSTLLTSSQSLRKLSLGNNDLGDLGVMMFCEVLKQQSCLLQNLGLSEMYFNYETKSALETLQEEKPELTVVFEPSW

B1: GST-human VDR (natural protein, UniProt P11473 1-427, looked up)
chain: MEAMAASTSLPDPGDFDRNVPRICGVCGDRATGFHFNAMTCEGCKGFFRRSMKRKALFTCPFNGDCRITKDNRRHCQACRLKRCVDIGMMKEFILTDEEVQRKREMILKRKEEEALKDSLRPKLSEEQQRIIAILLDAHHKTYDPTYSDFCQFRPPVRVNDGGGSHPSRPNSRHTPSFSGDSSSSCSDHCITSSDMMDSSSFSNLDLSEEDSDDPSVTLELSQLSMLPHLADLVSYSIQKVIGFAKMIPGFRDLTSEDQIVLLKSSAIEVIMLRSNESFTMDDMSWTCGNQDYKYRVSDVTKAGHSLELIEPLIKFQVGLKKLNLHEEEHVLLMAICIVSPDRPGVQDAALIEAIQDRLSNTLQTYIRCRHPPPGSHLLYAKMIQKLADLRSLNEEHSKQYRCLSFQPECSMKLTPLVLEVFGNEIS
notes: human vitamin D receptor in pGEX-6P1; also called GST-VDR; pGEX6p-1-GST-VDR; source: E. coli BL21(DE3), IPTG-induced; called purified in the legend
- binding result: binds
